From patent publication US20220363623A1, “IMAGING AND THERAPEUTIC COMPOSITIONS” (priority 2019, published 2022)

What was measured:
[1] = in vivo; parameters: species or system mice; conditions: male, mouse, iv, total radioactivity; for tissue uptake at 1 h: Tumour Uptake % ID/g 1 h pi; for tissue uptake at 18 h: Tumour Uptake % ID/g 18 h pi
Procedure: (§1) PET-CT imaging and Biodistribution. Male Balb/c nude mice (age 8.5 weeks) or Male NSG mice (age 12 weeks) were inoculated subcutaneously on the right flank with 6×10^6 LNCap cells in PBS:Matrigel (1:1). Mice were weighed and tumours measured twice weekly using electronic callipers. Tumour volume (mm^3) was calculated as length×width×height×π/6. Mice were assigned for imaging and biodistribution studies (tumour volumes: 85-450 mm3). ^89Zr-DFOSq-PSMA tracers were then administered intravenously by tail vein injection to 6 mice. At 1, 2, 4 and 18 hr post injection three mice were anaesthetised using isoflurane and placed on the imaging bed of a G8 PET/CT scanner (Perkin Elmer). A CT scan was performed and followed immediately by a 10 min static PET scan. PET images were reconstructed using the maximal likelihood and expectation maximization (ML-EM) algorithm. PET Images were analysed using VivoQuant (Invicro) and Tumour SUVmax or Tumour SUVmax/background average (TBR) determined. After imaging at 18 hr mice were euthanised and selected tissues were excised, weighed and counted using a Capintec (Captus 4000e) gamma counter. A separate cohort of 3 mice was harvested at 1 hr post injection for biodistribution analysis as above. The data was analysed using GraphPad Prism 7 and differences between tracers analysed using a t-test.
(§2) ^89Zr Labelled tracers: The ^89Zr radiolabelled PSMA tracers were injected intravenously via tail vein to LNCaP (human PSMA expressing prostate cancer cell line) tumour bearing mice. At 1, 2, 4 and 18 h post-injection the mice were anaesthetised with isoflurane and imaged over 10 min. The representative PET images of mice injected with ^89Zr radiolabelled PSMA tracers at 1 and 18 hr are shown in FIG. 1 and quantitation of the Tumour SUVmax for each tracer is shown in FIG. 2a. […] There was a trend for higher tumour SUVmax for (4) tracer compared to all other tracers at all time points. […] A comparison of tumour uptake values is shown in FIG. 2b and the tissue biodistribution data for the tracers at 1 and 18 hr is summarised in FIG. 3.
(§3) ^68Ga Labelled tracers: Representative PET images of mice injected with ^68Ga(1) and ^68Ga(4) are shown in FIG. 4 and quantitation of the tumour SUVmax is shown in FIG. 5a. […] Tumour uptake of ^68Ga(4) was 1.6 and 1.8 fold higher than ^68Ga(1) at 1 and 2 hr p.i., respectively. This is consistent with the biodistribution results where tumour % ID/g for ^68Ga(4) was higher than ^68Ga(1) at 1 hr (10.8±1.3 vs 6.5±0.4) and at 2.5 hr (8.6±1.0 vs 4.1±0.5) p.i. […] (6.5±0.4% ID/g at 1 hr vs 4.1±0.5% ID/g at 2.5 hr). In contrast, there was no significant change in ^68Ga(4) tumour retention at 1 and 2.5 p.i. (10.8±1.3% ID/g vs […], FIG. 5b).

[2] = test system: LNCaP (human PSMA expressing prostate cancer cell line) tumour; parameters: species or system mice; conditions: mouse, in vivo
Procedure: as §1, §2, §3

SMILES | tissue uptake at 1 h [1] [%ID/g] | tissue uptake at 18 h [1] [%ID/g] | Tumour SUVmax 1 h pi [2] | Tumour SUVmax 18 h pi [2] | Tumour SUVmax Clearance % [2] [%]
CC(=O)N(O)CCCCCNC(=O)CCC(=O)N(O)CCCCCNC(=O)CCC(=O)N(O)CCCCCNc1c(NCCN(CCNC(=O)CCCC(=O)NCCCCC(NC(=O)NC(CCC(=O)O)C(=O)O)C(=O)O)CCNC(=O)CCCC(=O)NCCCCC(NC(=O)NC(CCC(=O)O)C(=O)O)C(=O)O)c(=O)c1=O (single isomer, unassigned) [(3), DFOSq-bisPSMA ligand] | 5.9 | 2.5 |  |  | 
CC(=O)N(O)CCCCCNC(=O)CCC(=O)N(O)CCCCCNC(=O)CCC(=O)N(O)CCCCCNc1c(NCc2ccc(C(=O)NCCCCC(NC(=O)NC(CCC(=O)O)C(=O)O)C(=O)O)cc2)c(=O)c1=O (single isomer, unassigned) [^89Zr(1), metal not drawn] | 4.6 ± 0.45 | 1.7 ± 0.18 | 1.1 ± 0.12 | 0.4 ± 0.05 | 63
CC(=O)N(O)CCCCCNC(=O)CCC(=O)N(O)CCCCCNC(=O)CCC(=O)N(O)CCCCCNc1c(NCCN(CCNC(=O)CCCC(=O)NCc2ccc(C(=O)NCCCCC(NC(=O)NC(CCC(=O)O)C(=O)O)C(=O)O)cc2)CCNC(=O)CCCC(=O)NCc2ccc(C(=O)NCCCCC(NC(=O)NC(CCC(=O)O)C(=O)O)C(=O)O)cc2)c(=O)c1=O (single isomer, unassigned) [^89Zr(4), metal not drawn] | 9.3 ± 0.33 | 3.7 ± 1.07 | 3.2 ± 0.30 | 1.5 ± 0.18 | 54
CC(=O)N(O)CCCCCNC(=O)CCC(=O)N(O)CCCCCNC(=O)CCC(=O)N(O)CCCCCNc1c(NCCNC(=O)CN(CCN(CC(=O)O)CC(=O)Nc2ccc(C(=O)NCCCCC(NC(=O)NC(CCC(=O)O)C(=O)O)C(=O)O)cc2)CC(=O)O)c(=O)c1=O (stereo not shown) [(2), DFOSq-EDTA-PSMA ligand] | 3.2 | 1 |  |  | 
CC(=O)N(O)CCCCCNC(=O)CCC(=O)N(O)CCCCCNC(=O)CCC(=O)N(O)CCCCCNc1c(NCCN(CCNC(=O)CCCC(=O)NCc2ccc(C(=O)NCCCCC(NC(=O)NC(CCC(=O)O)C(=O)O)C(=O)O)cc2)CCNC(=O)CCCC(=O)NCc2ccc(C(=O)NCCCCC(NC(=O)NC(CCC(=O)O)C(=O)O)C(=O)O)cc2)c(=O)c1=O (stereo not shown) [(4), DFOSq-bisPhPSMA ligand] | 9.3 | 3.7 |  |  | 
